Results from publication PMC10786891, “Massively parallel profiling of RNA-targeting CRISPR-Cas13d”.

Key:
[1] = system: dRfxCas13d (Ruminococcus flavefaciens); assay: BLI; details: 6 mM Mg2+; BLI: 40 mM Tris-HCl pH 7.5, 150 mM NaCl, 6 mM MgCl2, 1 mM DTT, 0.1% Tween-20, 0.2 mg/ml BSA; RNP 25-100 nM (dRfx 25 nM only); temperature not stated
dEsCas13d = target: T1, dEsCas13d (Eubacterium siraeum, UniProt B0MS50 1-954, R295A;H300A;R849A;H854A); assay: BLI; 6 mM Mg2+; BLI: 40 mM Tris-HCl pH 7.5, 150 mM NaCl, 6 mM MgCl2, 1 mM DTT, 0.1% Tween-20, 0.2 mg/ml BSA; RNP 25-100 nM (dRfx 25 nM only); temperature not stated; details: protein: recombinant, tags: 6xHis-TwinStrep-SUMO, cleaved, 22 nt crRNA-target match
T1 sequence: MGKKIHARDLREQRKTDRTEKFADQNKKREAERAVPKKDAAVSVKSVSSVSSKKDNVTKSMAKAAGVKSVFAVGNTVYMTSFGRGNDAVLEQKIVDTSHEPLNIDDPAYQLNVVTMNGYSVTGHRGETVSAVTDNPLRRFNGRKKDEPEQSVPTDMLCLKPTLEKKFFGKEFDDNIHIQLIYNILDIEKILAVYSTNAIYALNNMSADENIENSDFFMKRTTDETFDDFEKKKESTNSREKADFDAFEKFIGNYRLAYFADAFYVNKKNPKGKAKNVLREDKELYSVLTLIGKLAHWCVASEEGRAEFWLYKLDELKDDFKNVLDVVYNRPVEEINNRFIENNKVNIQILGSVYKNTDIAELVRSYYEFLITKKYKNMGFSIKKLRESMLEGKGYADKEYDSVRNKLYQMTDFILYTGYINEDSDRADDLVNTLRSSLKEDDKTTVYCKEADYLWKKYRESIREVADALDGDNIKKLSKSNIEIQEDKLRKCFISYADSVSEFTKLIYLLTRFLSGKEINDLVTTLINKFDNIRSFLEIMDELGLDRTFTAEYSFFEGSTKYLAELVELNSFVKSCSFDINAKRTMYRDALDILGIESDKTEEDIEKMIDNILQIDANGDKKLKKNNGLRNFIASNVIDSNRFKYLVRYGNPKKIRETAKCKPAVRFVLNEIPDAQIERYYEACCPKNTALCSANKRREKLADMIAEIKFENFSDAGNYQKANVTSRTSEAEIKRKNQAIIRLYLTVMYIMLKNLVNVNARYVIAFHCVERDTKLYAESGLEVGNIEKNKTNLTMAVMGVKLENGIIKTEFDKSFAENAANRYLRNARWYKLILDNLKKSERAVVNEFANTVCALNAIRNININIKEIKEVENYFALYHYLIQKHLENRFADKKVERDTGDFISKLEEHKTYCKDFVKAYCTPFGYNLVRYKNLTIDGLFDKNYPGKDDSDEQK

[2] = target: T2, RfxCas13d (CasRx), nuclease-dead (Ruminococcus flavefaciens, R239A;H244A;R858A;H863A); assay: BLI; crRNA (strand 1, pre-loaded); Mg2+; 40 mM Tris-HCl pH 7.5, 150 mM NaCl, 6 mM MgCl2, 1 mM DTT, 0.1% Tween-20, 0.2 mg/ml BSA; temperature not stated; details: tags: His6-TwinStrep-SUMO cleaved; label: 3' biotin on strand 2
T2 chain: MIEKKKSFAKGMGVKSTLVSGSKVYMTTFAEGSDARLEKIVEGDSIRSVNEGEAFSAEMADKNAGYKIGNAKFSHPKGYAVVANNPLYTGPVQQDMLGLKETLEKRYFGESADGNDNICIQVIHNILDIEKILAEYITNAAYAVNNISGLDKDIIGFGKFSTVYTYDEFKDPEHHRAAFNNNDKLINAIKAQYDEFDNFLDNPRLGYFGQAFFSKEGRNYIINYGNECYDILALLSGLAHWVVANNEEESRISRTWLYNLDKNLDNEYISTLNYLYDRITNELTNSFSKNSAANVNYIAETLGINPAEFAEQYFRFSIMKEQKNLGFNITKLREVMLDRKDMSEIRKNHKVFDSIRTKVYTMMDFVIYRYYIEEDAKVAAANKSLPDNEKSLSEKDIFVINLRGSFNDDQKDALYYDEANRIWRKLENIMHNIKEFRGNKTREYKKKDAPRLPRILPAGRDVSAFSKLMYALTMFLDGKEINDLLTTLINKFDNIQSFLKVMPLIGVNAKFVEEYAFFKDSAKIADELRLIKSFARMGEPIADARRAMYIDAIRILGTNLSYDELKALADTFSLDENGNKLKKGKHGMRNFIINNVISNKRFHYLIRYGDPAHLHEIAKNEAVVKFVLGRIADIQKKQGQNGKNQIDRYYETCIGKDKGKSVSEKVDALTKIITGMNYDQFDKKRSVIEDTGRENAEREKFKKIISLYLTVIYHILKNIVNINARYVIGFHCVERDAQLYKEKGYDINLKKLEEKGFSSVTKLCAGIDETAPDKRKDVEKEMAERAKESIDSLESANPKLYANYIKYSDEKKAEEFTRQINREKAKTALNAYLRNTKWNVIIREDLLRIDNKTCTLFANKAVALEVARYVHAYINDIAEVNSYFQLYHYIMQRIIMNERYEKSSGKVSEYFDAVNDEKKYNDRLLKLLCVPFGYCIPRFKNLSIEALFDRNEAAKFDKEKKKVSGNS

EsCas13d, nuclease-dead [3] = target: T3, EsCas13d, nuclease-dead (Eubacterium siraeum, UniProt B0MS50, R295A;H300A;R849A;H854A); assay: as above; details: tags: His6-TwinStrep-SUMO cleaved; label: 3' biotin on strand 2
T3 sequence: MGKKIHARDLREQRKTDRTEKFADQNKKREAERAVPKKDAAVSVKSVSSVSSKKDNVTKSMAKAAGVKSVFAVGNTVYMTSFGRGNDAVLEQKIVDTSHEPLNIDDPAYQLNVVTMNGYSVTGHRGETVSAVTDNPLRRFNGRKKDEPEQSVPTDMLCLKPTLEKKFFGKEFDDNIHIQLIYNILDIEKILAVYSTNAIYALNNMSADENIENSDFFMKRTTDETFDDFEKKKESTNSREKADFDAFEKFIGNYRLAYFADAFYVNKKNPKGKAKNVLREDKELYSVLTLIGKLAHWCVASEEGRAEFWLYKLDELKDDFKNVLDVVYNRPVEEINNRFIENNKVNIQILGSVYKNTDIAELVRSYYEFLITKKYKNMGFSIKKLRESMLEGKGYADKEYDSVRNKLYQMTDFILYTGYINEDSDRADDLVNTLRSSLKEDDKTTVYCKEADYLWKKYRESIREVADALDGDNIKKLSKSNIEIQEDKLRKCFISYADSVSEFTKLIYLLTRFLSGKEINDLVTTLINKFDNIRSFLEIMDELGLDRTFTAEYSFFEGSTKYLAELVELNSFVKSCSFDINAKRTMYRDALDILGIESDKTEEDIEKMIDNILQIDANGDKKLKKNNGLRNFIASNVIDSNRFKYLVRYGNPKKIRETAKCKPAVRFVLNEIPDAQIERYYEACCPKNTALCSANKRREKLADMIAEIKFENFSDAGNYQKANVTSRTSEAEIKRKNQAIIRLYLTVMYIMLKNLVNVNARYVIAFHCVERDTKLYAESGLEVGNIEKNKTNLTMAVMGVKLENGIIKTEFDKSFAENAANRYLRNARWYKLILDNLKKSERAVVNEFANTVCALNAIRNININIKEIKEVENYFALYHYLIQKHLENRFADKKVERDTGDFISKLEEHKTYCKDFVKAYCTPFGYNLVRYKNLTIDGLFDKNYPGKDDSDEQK

EsCas13d, nuclease-dead [4] = target: T3, EsCas13d, nuclease-dead; assay: as above; details: tags: His6-TwinStrep-SUMO cleaved; label: 3' biotin on strand 2; remark: listed apart in the source

“AACCCCUACCAACUGGUCGGGGUUUGAAACUGAGCGGAUAACCUCUCUAUGG / CCACAUCUACGAAUUCGUACCAUAGAGAGGUUAUCCGAUCACCGAGAUCGGAAGAGCACA [Rfx crRNA_Target 1 / C4A]” was tested, and the Kd [1] was 132 pM.

B1: crRNA_Target 1 / MT (5'-GUA PFS) (ssRNA)
RNA 1: CACCCGUGCAAAAAUGCAGGGGUCUAAAACUGAGCGGAUAACCUCUCUAUGG
RNA 2: CCACAUCUACGAAUUCGUACCAUAGAGAGGUUAUCCGCUCACCGAGAUCGGAAGAGCACA
B1 gave a Kd (dEsCas13d; label: 3' biotin on target) of 3100 ± 18 pM.

B2: target 1 U10G (60-mer) (mixed)
RNA 1: AACCCCUACCAACUGGUCGGGGUUUGAAACUGAGCGGAUAACCUCUCUAUGG
RNA 2: CCACAUCUACGAAUUCGUACCAUAGAGAGGUGAUCCGCUCACCGAGAUCGGAAGAGCACA
In the case of B2, the Kd [2] is reported as roughly 271 pM.

B3: target 1 G15A (60-mer) (mixed)
RNA 1: AACCCCUACCAACUGGUCGGGGUUUGAAACUGAGCGGAUAACCUCUCUAUGG
RNA 2: CCACAUCUACGAAUUCGUACCAUAGAAAGGUUAUCCGCUCACCGAGAUCGGAAGAGCACA
For B3, the Kd [2] was roughly 119 pM.

B4: crRNA_Target 1 / U9-flanked target (ssRNA)
RNA 1: CACCCGUGCAAAAAUGCAGGGGUCUAAAACUGAGCGGAUAACCUCUCUAUGG
RNA 2: UUUUUUUUUCCAUAGAGAGGUUAUCCGCUCAUUUUUUUUU
Work on B4 yielded a Kd (dEsCas13d) of 1600 ± 24 pM.

B5: target 1 C2G (60-mer) (mixed)
RNA 1: AACCCCUACCAACUGGUCGGGGUUUGAAACUGAGCGGAUAACCUCUCUAUGG
RNA 2: CCACAUCUACGAAUUCGUACCAUAGAGAGGUUAUCCGCUGACCGAGAUCGGAAGAGCACA
B5 was tested, and the Kd [2] was roughly 109 pM.

B6: target 1 MT (60-mer) (mixed)
RNA 1: AACCCCUACCAACUGGUCGGGGUUUGAAACUGAGCGGAUAACCUCUCUAUGG
RNA 2: CCACAUCUACGAAUUCGUACCAUAGAGAGGUUAUCCGCUCACCGAGAUCGGAAGAGCACA
Molecule B6 has a Kd [2] of roughly 104 pM.

B7: target 1 C22A (60-mer) (mixed)
RNA 1: AACCCCUACCAACUGGUCGGGGUUUGAAACUGAGCGGAUAACCUCUCUAUGG
RNA 2: CCACAUCUACGAAUUCGUAACAUAGAGAGGUUAUCCGCUCACCGAGAUCGGAAGAGCACA
In the case of B7, the Kd [2] is reported as roughly 291 pM.

B8: target 1 C4A (60-mer) (mixed)
RNA 1: AACCCCUACCAACUGGUCGGGGUUUGAAACUGAGCGGAUAACCUCUCUAUGG
RNA 2: CCACAUCUACGAAUUCGUACCAUAGAGAGGUUAUCCGAUCACCGAGAUCGGAAGAGCACA
B8 was tested, and the Kd [2] was roughly 132 pM.

B9: target 1 A18G (60-mer) (mixed)
RNA 1: AACCCCUACCAACUGGUCGGGGUUUGAAACUGAGCGGAUAACCUCUCUAUGG
RNA 2: CCACAUCUACGAAUUCGUACCAUGGAGAGGUUAUCCGCUCACCGAGAUCGGAAGAGCACA
B9 showed a Kd [2] of roughly 886 pM.

B10: target 1 C7A (60-mer) (mixed)
RNA 1: AACCCCUACCAACUGGUCGGGGUUUGAAACUGAGCGGAUAACCUCUCUAUGG
RNA 2: CCACAUCUACGAAUUCGUACCAUAGAGAGGUUAUACGCUCACCGAGAUCGGAAGAGCACA
B10 showed a Kd [2] of roughly 175 pM.

B11: target 1 G5U (60-mer) (mixed)
RNA 1: AACCCCUACCAACUGGUCGGGGUUUGAAACUGAGCGGAUAACCUCUCUAUGG
RNA 2: CCACAUCUACGAAUUCGUACCAUAGAGAGGUUAUCCUCUCACCGAGAUCGGAAGAGCACA
With B11 the Kd [2] was roughly 1120 pM.

B12: target 1 A20C (60-mer) (mixed)
RNA 1: AACCCCUACCAACUGGUCGGGGUUUGAAACUGAGCGGAUAACCUCUCUAUGG
RNA 2: CCACAUCUACGAAUUCGUACCCUAGAGAGGUUAUCCGCUCACCGAGAUCGGAAGAGCACA
B12 showed a Kd [2] of roughly 556 pM.

B13: crRNA-1 (MT) target (mixed)
RNA 1: CACCCGUGCAAAAUUGCAGGGGUCUAAAACUUUUGGUUGACCACAUCUUGAA
RNA 2: UUGGAAAACUUCAAGAUGUGGUCAACCAAAAUGCACAAGC
With B13 the Kd (EsCas13d, nuclease-dead [3]) was 4000 pM, the koff (EsCas13d, nuclease-dead [4]) was 0.00038 s⁻¹ and the kon (EsCas13d, nuclease-dead [4]) was 96000 M⁻¹ s⁻¹.
